# From paper PMC2647295
# Target: MUC1-5TR (unglycosylated, five MUC1 tandem repeats) (UniProt P15941 126-225)
# Test: SPR
# Sequence of MUC1-5TR (unglycosylated, five MUC1 tandem repeats) (P15941 126-225): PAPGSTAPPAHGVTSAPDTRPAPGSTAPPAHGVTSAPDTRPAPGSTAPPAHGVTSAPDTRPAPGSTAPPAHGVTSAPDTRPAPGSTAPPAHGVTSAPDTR
row,Binder,Kd [nM]
1,GGCTATAGCACATGGGTAAAACGAC (ssDNA) [5TR2],85.2
2,CAAACAATCAAACAGCAGTGGGGTG (ssDNA) [5TR3],83
3,TACTGCATGCACACCACTTCAACTA (ssDNA) [5TR4],69
4,GAAGTGAAAATGACAGAACACAACA (ssDNA) [5TR1],21
